Measurements reported in the Immune Epitope Database (IEDB).

Key:
HLA-A*03:01 [1] = test: IEDB peptide-MHC binding, purified MHC/competitive/fluorescence; ≥ and ≤ were set here for values at or beyond the usual limits of such assays
HLA-A*11:01 [2] = test: as above
HLA-A*24:02 = test: as above; conditions: source organism: Zaire ebolavirus
HLA-A*01:01 = test: IEDB peptide-MHC binding, purified MHC/direct/fluorescence; filed as Kd, often an IC50 or EC50 that approximates it; ≥ and ≤ were set here for values at or beyond the usual limits of such assays
HLA-A*29:02 = test: as above
HLA-A*02:01 [3] = test: IEDB peptide-MHC binding, purified MHC/competitive/fluorescence; ≥ and ≤ were set here for values at or beyond the usual limits of such assays
HLA-A*02:03 [4] = test: IEDB peptide-MHC binding, purified MHC/direct/fluorescence; filed as Kd, often an IC50 or EC50 that approximates it; ≥ and ≤ were set here for values at or beyond the usual limits of such assays
HLA-A*02:11 = test: as above
HLA-A*02:12 = test: as above
HLA-A*02:16 = test: as above
HLA-A*02:19 = test: as above
HLA-A*03:01 [5] = test: as above
HLA-A*24:03 = test: as above
HLA-A*68:02 = test: as above
HLA-B*07:02 = test: as above
HLA-A*02:01 [6] = test: IEDB peptide-MHC binding, purified MHC/competitive/fluorescence; filed as Kd, often an IC50 or EC50 that approximates it; ≥ and ≤ were set here for values at or beyond the usual limits of such assays
HLA-A*26:01 = test: as above
HLA-A*69:01 = test: as above
HLA-B*15:01 [7] = test: as above; conditions: source organism: Orthohantavirus andesense
HLA-B*15:17 [8] = test: as above; conditions: source organism: Orthohantavirus andesense
HLA-B*18:01 [9] = test: as above; conditions: source organism: Orthohantavirus andesense
HLA-B*27:03 = test: as above; conditions: source organism: Orthohantavirus andesense
HLA-B*35:01 = test: as above; conditions: source organism: Orthohantavirus andesense
HLA-B*39:01 = test: as above
HLA-B*46:01 [10] = test: as above; conditions: source organism: Orthohantavirus andesense
HLA-B*51:01 [11] = test: as above; conditions: source organism: Orthohantavirus andesense
HLA-B*57:01 [12] = test: as above; conditions: source organism: Orthohantavirus andesense
HLA-B*40:01 = test: IEDB peptide-MHC binding, purified MHC/direct/fluorescence; filed as Kd, often an IC50 or EC50 that approximates it; ≥ and ≤ were set here for values at or beyond the usual limits of such assays
HLA-B*15:42 = test: IEDB peptide-MHC binding, purified MHC/competitive/fluorescence; filed as Kd, often an IC50 or EC50 that approximates it; ≥ and ≤ were set here for values at or beyond the usual limits of such assays
HLA-B*45:06 = test: as above
HLA-B*83:01 = test: as above
HLA-A*11:01 [13] = test: IEDB peptide-MHC binding, purified MHC/direct/fluorescence; filed as Kd, often an IC50 or EC50 that approximates it; ≥ and ≤ were set here for values at or beyond the usual limits of such assays; conditions: source organism: Cowpox virus
HLA-A*31:01 = test: as above; conditions: source organism: Cowpox virus
HLA-B*15:01 [14] = test: as above; conditions: source organism: Cowpox virus
HLA-B*15:17 [15] = test: as above; conditions: source organism: Cowpox virus
HLA-B*18:01 [16] = test: as above; conditions: source organism: Cowpox virus
HLA-B*27:05 = test: as above; conditions: source organism: Cowpox virus
HLA-B*46:01 [17] = test: as above; conditions: source organism: Cowpox virus
HLA-B*48:01 = test: as above; conditions: source organism: Cowpox virus
HLA-B*51:01 [18] = test: as above; conditions: source organism: Cowpox virus
HLA-B*57:01 [19] = test: as above; conditions: source organism: Cowpox virus
HLA-B*58:01 = test: as above; conditions: source organism: Cowpox virus
HLA-A*02:03 [20] = test: IEDB peptide-MHC binding, purified MHC/competitive/fluorescence; filed as Kd, often an IC50 or EC50 that approximates it; ≥ and ≤ were set here for values at or beyond the usual limits of such assays; conditions: source organism: Vaccinia virus Copenhagen
HLA-A*02:06 = test: as above; conditions: source organism: Vaccinia virus Copenhagen
HLA-B*08:01 = test: as above; conditions: source organism: Vaccinia virus Copenhagen
[21] = source organism: Zaire ebolavirus
[22] = source organism: Mammarenavirus juninense
[23] = source organism: Sudan ebolavirus
[24] = source organism: Orthohantavirus andesense
[25] = source organism: Vaccinia virus
[26] = source organism: Vaccinia virus Copenhagen

Work on AFLILPQAK yielded an IC50 (HLA-A*03:01 [1]; [21]) of 20 µM, an IC50 (HLA-A*11:01 [2]; [21]) of 14.1 µM and an IC50 (HLA-A*24:02) of 26.9 µM.
For HTEFQTVSF, the Kd (HLA-A*01:01; [22]) was 2.29 µM and the Kd (HLA-A*29:02; [22]) was no less than 20 µM.
In the case of ILGSLGLRK, the IC50 (HLA-A*02:01 [3]; [23]) is reported as no less than 141 µM, the IC50 (HLA-A*03:01 [1]; [23]) is reported as 0.872 µM and the IC50 (HLA-A*11:01 [2]; [23]) is reported as 0.219 µM.
With IQNVPGPHR the IC50 (HLA-A*02:01 [3]; [21]) was no less than 119 µM, the IC50 (HLA-A*03:01 [1]; [21]) was 8.53 µM and the IC50 (HLA-A*11:01 [2]; [21]) was 0.889 µM. The IC50 (HLA-A*24:02) was 6.86 µM.
KPKALSEAF gave a Kd (HLA-A*02:03 [4]; source organism: Oran virus) of no less than 20 µM, a Kd (HLA-A*02:11; source organism: Oran virus) of no less than 20 µM and a Kd (HLA-A*02:12; source organism: Oran virus) of no less than 20 µM. The Kd (HLA-A*02:16; source organism: Oran virus) was no less than 20 µM, the Kd (HLA-A*02:19; source organism: Oran virus) was no less than 20 µM and the Kd (HLA-A*03:01 [5]; source organism: Oran virus) was no less than 20 µM. The Kd (HLA-A*24:03; source organism: Oran virus) was no less than 20 µM, the Kd (HLA-A*29:02; source organism: Oran virus) was no less than 20 µM and the Kd (HLA-A*68:02; source organism: Oran virus) was no less than 20 µM. The Kd (HLA-B*07:02; source organism: Oran virus) was 0.0765 µM, the Kd (HLA-A*02:01 [6]; [24]) was no less than 20 µM and the Kd (HLA-A*26:01; [24]) was no less than 20 µM. For the same sequence, the Kd (HLA-A*69:01; [24]) was no less than 20 µM, the Kd (HLA-B*15:01 [7]) was no less than 20 µM and the Kd (HLA-B*15:17 [8]) was no less than 20 µM. The Kd (HLA-B*18:01 [9]) was no less than 20 µM, the Kd (HLA-B*27:03) was no less than 20 µM and the Kd (HLA-B*35:01) was 0.0223 µM. It also gave a Kd (HLA-B*39:01; [24]) of no less than 20 µM, a Kd (HLA-B*46:01 [10]) of no less than 20 µM and a Kd (HLA-B*51:01 [11]) of no less than 20 µM. It also gave a Kd (HLA-B*57:01 [12]) of no less than 20 µM.
Sequence LEEDIQHFL has a Kd (HLA-A*02:03 [4]; [24]) of no less than 20 µM, a Kd (HLA-A*02:11; [24]) of no less than 20 µM and a Kd (HLA-A*02:12; [24]) of no less than 20 µM. The Kd (HLA-A*02:16; [24]) was no less than 20 µM, the Kd (HLA-A*02:19; [24]) was no less than 20 µM and the Kd (HLA-A*03:01 [5]; [24]) was no less than 20 µM. The Kd (HLA-A*24:03; [24]) was no less than 20 µM, the Kd (HLA-A*29:02; [24]) was no less than 20 µM and the Kd (HLA-A*68:02; [24]) was no less than 20 µM. It also gave a Kd (HLA-B*40:01; [24]) of 0.0002 µM, a Kd (HLA-A*02:01 [6]; [24]) of no less than 20 µM and a Kd (HLA-A*26:01; [24]) of no less than 20 µM. For the same sequence, the Kd (HLA-A*69:01; [24]) was no less than 20 µM, the Kd (HLA-B*15:01 [7]) was no less than 20 µM and the Kd (HLA-B*15:17 [8]) was no less than 20 µM. It also gave a Kd (HLA-B*15:42; [24]) of no less than 5 µM, a Kd (HLA-B*18:01 [9]) of no less than 20 µM and a Kd (HLA-B*27:03) of no less than 20 µM. It also gave a Kd (HLA-B*39:01; [24]) of no less than 20 µM, a Kd (HLA-B*45:06; [24]) of no less than 5 µM and a Kd (HLA-B*46:01 [10]) of no less than 20 µM. For the same sequence, the Kd (HLA-B*51:01 [11]) was no less than 20 µM, the Kd (HLA-B*57:01 [12]) was no less than 20 µM and the Kd (HLA-B*83:01; [24]) was no less than 5 µM.
Work on LLQKYPPPR yielded an IC50 (HLA-A*02:01 [3]; [25]) of no less than 101 µM, an IC50 (HLA-A*03:01 [1]; [25]) of 4.03 µM and an IC50 (HLA-A*11:01 [2]; [25]) of 7.75 µM.
Sequence RTNGASYAY has a Kd (HLA-A*01:01; source organism: Mycobacterium tuberculosis) of 0.199 µM and a Kd (HLA-A*29:02; source organism: Mycobacterium tuberculosis str. Haarlem) of no more than 0.001 µM.
SIATNLEYK gave an IC50 (HLA-A*03:01 [1]; [25]) of 3.98 µM and an IC50 (HLA-A*11:01 [2]; [25]) of 0.427 µM.
YPPPRYITV was tested, and the Kd (HLA-A*01:01; source organism: Cowpox virus) was no less than 20 µM, the Kd (HLA-A*03:01 [5]; source organism: Cowpox virus) was no less than 20 µM and the Kd (HLA-A*11:01 [13]) was no less than 20 µM. The Kd (HLA-A*31:01) was no less than 20 µM, the Kd (HLA-B*07:02; source organism: Cowpox virus) was 0.113 µM and the Kd (HLA-B*15:01 [14]) was no less than 20 µM. It also gave a Kd (HLA-B*15:17 [15]) of no less than 20 µM, a Kd (HLA-B*18:01 [16]) of no less than 20 µM and a Kd (HLA-B*27:05) of no less than 20 µM. It also gave a Kd (HLA-B*40:01; source organism: Cowpox virus) of no less than 20 µM, a Kd (HLA-B*46:01 [17]) of no less than 20 µM and a Kd (HLA-B*48:01) of no less than 20 µM. The Kd (HLA-B*51:01 [18]) was 0.179 µM, the Kd (HLA-B*57:01 [19]) was no less than 20 µM and the Kd (HLA-B*58:01) was no less than 20 µM. The Kd (HLA-A*02:01 [6]; [26]) was 0.106 µM, the Kd (HLA-A*02:03 [20]) was 0.239 µM and the Kd (HLA-A*02:06) was 0.0114 µM. It also gave a Kd (HLA-A*26:01; [26]) of no less than 20 µM, a Kd (HLA-A*69:01; [26]) of 0.0681 µM and a Kd (HLA-B*08:01) of 0.543 µM. It also gave a Kd (HLA-B*15:42; [26]) of no less than 5 µM, a Kd (HLA-B*39:01; [26]) of 3.58 µM and a Kd (HLA-B*45:06; [26]) of no less than 5 µM. For the same sequence, the Kd (HLA-B*83:01; [26]) was no less than 5 µM.
